From paper PMC5910193

Assays:
[1] = target: PEbody with N-terminal 6x His tag (human) (UniProt P02751); experiment: BLI
[2] = target: Single4 monobody displayed on the yeast surface (human) (UniProt P02751); experiment: flow cytometry on cells

- Kd [1]: 5.7 nM
- fold R-PE binding capability against G9 [2]: 500 fold
Substance: R-Phycoerythrin (complex)
